For one data set, the target named is NOX5 (Lactiplantibacillus plantarum, UniProt F9UUC2). The data set can be described thus: NAD+ product inhibition of NOX5. In kind it is biochemical, Lactobacillus plantarum. How it is done: Inhibition effects of NAD^+ and H2O2 were measured by incubating the enzyme with possible inhibitors for 30 minutes before the assay. For NAD^+, 0.2, 0.3, 0.4 and 0.6 mM were chosen and for H2O2, 25, 50, 100 and 200 μM were investigated.
Possible product inhibitory effects were investigated by incubating the enzyme with different concentrations of NAD^+. […] (FIG. 6).

Data set [1] can be described thus: NOX5 mutants assayed at the cell lysate level, NADH activity. In kind it is biochemical. On the procedure:
(§1) Standard assays were performed at 25° C. in 100 mM TEA buffer (pH 7.5) with 5 mM DTT in cuvettes with either a 1 cm or 1 mm path length, depending on the concentration of substrate. Initial activity was measured by following the absorbance change using a Beckman Coulter DU 800 UV/Vis spectrophotometer at 340 nm. Activity of the enzyme was calculated using an extinction coefficient of NAD(P)H, ε, as 6.22 mM^−1 cm^−1. Unless otherwise noted, a substrate concentration of 0.2 mM NADPH was used for assays. 1 unit (U) of activity is defined as […].
(§2) Single mutations were done on residues G178 and L179 into K, R and K, R, H respectively, and double mutations were also investigated with different combinations of the single mutations. The mutation of G178H was excluded due to the fact that the enzyme would then have two histidines next to each other, creating steric hindrance in the binding pocket. The resulting mutants were expressed on small scale and assayed at the cell lysate level.

Data set [2] can be described thus: NOX5 mutants assayed at the cell lysate level, NADPH activity. In kind it is biochemical. How it is done:
as §1, §2

Data set [3] in a line: Kinetic parameters of purified NADH oxidases, substrate NADH. In kind it is biochemical. How it is done:
as §1
[…] This was conducted with an excess of oxygen present in the system. The reaction was initiated by mixing two separate 2× solutions of each the substrate and enzyme. The specific activity was measured, and the kinetic parameters were calculated from that data.
The data was fitted with four different models: non-linear Michaelis-Menten, Lineweaver-Burk, Eadie-Hofstee and Hanes. Through non-linear fitting, kcat and KM of the wild type were measured to be 211.6 s^−1 and 50.2 μM, respectively with an R^2 of 0.998. (FIG. 5).

Data set [4] in a line: Kinetic parameters of purified NADH oxidases, substrate NADPH. In kind it is biochemical. The following applies: purified enzyme, excess of oxygen. How it is done: as §1
Depending on the enzyme, a substrate concentration range from 1.5 μM up to 984 μM was investigated to determine the kcat and KM of NADPH. This was conducted with an excess of oxygen present in the system. The reaction was initiated by mixing two separate 2× solutions of each the substrate and enzyme. The specific activity was measured, and the kinetic parameters were calculated from that data.

Data set [5] in a line: Total turnover number (TTN), NADH. In kind it is biochemical. More on the design: key: TTN = change in NAD(P)H concentration / amount of enzyme. Particulars: for TTN with DTT, NADH: 5 mM DTT, 25° C.; for TTN, NADH: no reducing agents. How it is done:
Standard kinetic assays were performed with small amounts of enzyme. Assays were carried out for two to three hours until there was no more enzymatic conversion of the substrate.
Total turnover number (TTN) is a measurement of catalyst productivity. For biocatalysts, TTN is defined as the total amount of product produced over the lifetime of an enzyme. […] […] (data not shown).
This experiment was repeated to see if the presence of reducing agents had any effect on the total turnover number. The stock solution of enzyme was dialyzed against 250 mL of 10 mM Tris-HCl (pH 7.5) for two hours. The solution was then exchanged and dialyzed for an additional 2 hours. The TTN was then measured with the dialyzed enzyme with and without reducing agents. DTT and β-mercaptoethanol (β-ME) were used at a concentration of 5 mM. The TTN for the sample with no reducing agents, DTT and β-ME were 128,000, 168,000 and 107,000, respectively.

Where [6] appears, read: purified enzyme, excess of oxygen.

Substitutions are numbered along the chain they refer to. Numbers in names are those of the source.

Sequence of NOX5 (F9UUC2 entry or part of it): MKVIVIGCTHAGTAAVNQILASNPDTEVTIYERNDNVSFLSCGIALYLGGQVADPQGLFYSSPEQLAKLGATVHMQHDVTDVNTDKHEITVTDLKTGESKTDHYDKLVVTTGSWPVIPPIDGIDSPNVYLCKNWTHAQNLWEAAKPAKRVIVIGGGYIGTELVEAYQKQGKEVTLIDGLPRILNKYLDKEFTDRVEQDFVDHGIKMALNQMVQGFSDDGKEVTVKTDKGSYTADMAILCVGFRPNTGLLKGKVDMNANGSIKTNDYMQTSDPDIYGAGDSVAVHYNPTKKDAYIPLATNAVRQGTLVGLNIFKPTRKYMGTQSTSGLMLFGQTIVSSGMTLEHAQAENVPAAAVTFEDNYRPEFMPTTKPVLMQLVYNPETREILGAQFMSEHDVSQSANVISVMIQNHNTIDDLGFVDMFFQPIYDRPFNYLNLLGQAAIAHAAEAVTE

In general, Ki refers to the equilibrium dissociation constant of an inhibitor or competing ligand from its target. At NOX5 (0.2, 0.3, 0.4 and 0.6 mM NAD^+, 30 minutes incubation), `NC(=O)c1ccc[n+]([C@@H]2O[C@H](COP(=O)([O-])OP(=O)(O)OC[C@H]3O[C@@H](n4cnc5c(N)ncnc54)[C@H](O)[C@@H]3O)[C@@H](O)[C@H]2O)c1` [NAD^+] came in with a Ki of 289 µM. Also, at NOX5 (Hanes-Woolf plot), the inhibition pattern entry was “non-competitive”.

B1: L179R: NADH oxidase derived from Lactobacillus plantarum, L179R mutant (protein, listed as Lactobacillus plantarum)
chain: MKVIVIGCTHAGTAAVNQILASNPDTEVTIYERNDNVSFLSCGIALYLGGQVADPQGLFYSSPEQLAKLGATVHMQHDVTDVNTDKHEITVTDLKTGESKTDHYDKLVVTTGSWPVIPPIDGIDSPNVYLCKNWTHAQNLWEAAKPAKRVIVIGGGYIGTELVEAYQKQGKEVTLIDGRPRILNKYLDKEFTDRVEQDFVDHGIKMALNQMVQGFSDDGKEVTVKTDKGSYTADMAILCVGFRPNTGLLKGKVDMNANGSIKTNDYMQTSDPDIYGAGDSVAVHYNPTKKDAYIPLATNAVRQGTLVGLNIFKPTRKYMGTQSTSGLMLFGQTIVSSGMTLEHAQAENVPAAAVTFEDNYRPEFMPTTKPVLMQLVYNPETREILGAQFMSEHDVSQSANVISVMIQNHNTIDDLGFVDMFFQPIYDRPFNYLNLLGQAAIAHAAEAVTE
For orientation: Km means the concentration of substrate that gives half-maximal velocity. B1: the NADH activity in data set [1] was 7.32 U/mg. The NADPH activity in data set [2] was found to be 1.76 U/mg. Also, the “improvement of kcat/KM (NADH) over the wild-type” value in data set [3] is “more than 4 fold”. In addition, in data set [3] (setting [6]), the Km stood at 6.56 µM and the “kcat, NADH” value came out at 122.0 s⁻¹. In data set [4], the Km was found to be 490 µM and the “kcat, NADPH” value was found to be 146.4 s⁻¹. Also, in data set [5], the “TTN with DTT, NADH” value is reported as 149,000 and the “TTN, NADH” value is 181,000.

B2: G178K/L179K: NADH oxidase derived from Lactobacillus plantarum, G178K/L179K mutant (protein, listed as Lactobacillus plantarum)
chain: B1 chain with G178K, R179K
In the case of B2, in data set [1], the NADH activity stood at 0.84 U/mg. Also, the NADPH activity in data set [2] came to 3.11 U/mg.

B3: G178K/L179R: NADH oxidase derived from Lactobacillus plantarum, G178K/L179R mutant (protein, listed as Lactobacillus plantarum)
chain: B1 chain with G178K
For the molecule B3, the NADH activity in data set [1] worked out at 2.00 U/mg. Also, in data set [2], the NADPH activity was 5.68 U/mg.

B4: G178R: NADH oxidase derived from Lactobacillus plantarum, G178R mutant (protein, listed as Lactobacillus plantarum)
chain: B1 chain with G178K, R179L
Take B4: the NADH activity in data set [1] came to 1.51 U/mg. In addition, in data set [2], the NADPH activity came out at 0.23 U/mg.

B5: G178K: NADH oxidase derived from Lactobacillus plantarum, G178K mutant (protein, listed as Lactobacillus plantarum)
chain: B1 chain with G178K, R179L
In the case of B5, the NADH activity in data set [1] is 3.92 U/mg. Moreover, the NADPH activity in data set [2] was 0.46 U/mg.

B6: G178R/L179H: NADH oxidase derived from Lactobacillus plantarum, G178R/L179H mutant (protein, listed as Lactobacillus plantarum)
chain: B1 chain with G178R, R179H
For B6, the NADH activity in data set [1] is given as 0.64 U/mg. Further, the NADPH activity in data set [2] was 0.52 U/mg.

B7: L179K: NADH oxidase derived from Lactobacillus plantarum, L179K mutant (protein, listed as Lactobacillus plantarum)
chain: B1 chain with R179K
As to B7, the NADH activity in data set [1] is recorded as 5.14 U/mg. For the same molecule, the NADPH activity in data set [2] was found to be 1.03 U/mg.

B8: L179H: NADH oxidase derived from Lactobacillus plantarum, L179H mutant (protein, listed as Lactobacillus plantarum)
chain: B1 chain with R179H
Regarding B8, in data set [1], the NADH activity stood at 1.37 U/mg. Besides, the NADPH activity in data set [2] amounted to 0.64 U/mg.

B9: G178K/L179H: NADH oxidase derived from Lactobacillus plantarum, G178K/L179H mutant (protein, listed as Lactobacillus plantarum)
chain: B1 chain with G178K, R179H
On to B9, for which the NADH activity in data set [1] stood at 1.24 U/mg. The NADPH activity in data set [2] was found to be 3.85 U/mg.

B10: G178R/L179K: NADH oxidase derived from Lactobacillus plantarum, G178R/L179K mutant (protein, listed as Lactobacillus plantarum)
chain: B1 chain with G178R, R179K
On to B10, for which the NADH activity in data set [1] amounted to 0.94 U/mg. Further, the NADPH activity in data set [2] is given as 3.56 U/mg.

B11: L. lactis NOX2: NADH oxidase from Lactococcus lactis, comparison enzyme (protein, UniProt A2RIB7 1-446, looked up)
NADH oxidase: MKIVVIGTNHAGIATANTLLEQYPGHEIVMIDRNSNMSYLGCGTAIWVGRQIEKPDELFYAKAEDFEAKGVKILTETEVSEIDFANKKVYAKTKSDDEIIEAYDKLVLATGSRPIIPNLPGKDLKGIHFLKLFQEGQAIDAEFAKEKVKRIAVIGAGYIGTEIAEAAKRRGKEVLLFDAENTSLASYYDEEFAKGMDENLAQHGIELHFGELAKEFKANEEGYVSQIVTNKATYDVDLVINCIGFTANSALASDKLATFKNGAIKVDKHQQSSDPDVYAVGDVATIYSNALQDFTYIALASNAVRSGIVAGHNIGGKELESVGVQGSNGISIFGYNMTSTGLSVKAAKKLGLEVSFSDFEDKQKAWFLHENNDSVKIRIVYETKSRRIIGAQLASKSEIIAGNINMFSLAIQEKKTIDELALLDLFFLPHFNSPYNYMTVAALNAK
Consider B11, for which, in data set [5], the “TTN with DTT, NADH” value was 78,480 and the “TTN, NADH” value is reported as 38,740.

For the origin of these results see US8530213B2, “Compositions and methods for using NADH oxidases” (Georgia Tech Research Corporation, priority 2009, dated 2013).
